Data from the supplement of paper PMC10567573.

B1: PLD5 (parent)
chain: WIVDKQHVYIGSAGLDWQSLGQMK

Variants of: B1
Assay: protein stability index of a GFP-peptide fusion (GPS, HEK-293T) (PSI 1-6); higher = more stable
Details: c terminus: a fixed tail appended
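Note: lentivirally expressed fusions sorted by FACS into six bins by GFP to DsRed ratio, PSI derived from sequencing read proportions per bin multiplied by bin number.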

Protein stability index of substitutions, site by site:
G11: H 1.92 | D 1.46 | F 2.11 | M 2.25 | N 2.32 | P 2.12 | Q 1.53 | R 2.02 | K 1.26 | V 2.02 | C 2.07 | A 1.69 | L 2.88 | W 2.27 | T 1.71 | E 2.82 | S 2.22 | Y 3.22 | I 2.71
S19: R 1.83 | W 2.5 | D 1.9 | Y 1.91 | E 2.06 | P 1.29 | H 1.81 | Q 1.9 | T 1.96 | K 2.22 | F 2.34 | L 3.25 | C 2.62 | A 2.23 | N 1.45 | V 1.69 | M 1.7
L20: G 2.43 | T 2.01 | A 1.65 | C 2.05 | R 2.13 | I 1.97 | D 1.96 | S 1.85 | H 1.76 | Q 1.54 | K 2.17 | W 1.85 | V 2 | Y 1.97 | N 2 | E 2.3 | M 2.19 | P 2.1 | F 1.61
Q18: E 1.6 | G 2.4 | H 1.96 | M 3.07 | S 2.16 | R 1.47 | Y 2.65 | P 1.85 | I 2.62 | N 2.1 | F 4.52 | T 2.07 | V 2.73 | A 1.95 | D 2.42 | K 1.61 | C 3.36 | L 2.15
H7: S 2.26 | M 2.6 | T 2.26 | C 1.37 | N 1.48 | Q 1.96 | D 1.98 | Y 2.6 | A 2.63 | W 3.59 | E 1.42 | G 2.17 | K 1.54 | P 2.27 | R 2.36
V8: N 2.01 | Q 2.11 | P 2.06 | G 1.35 | M 2.45 | A 1.66 | S 1.69 | W 2.43 | T 1.81 | I 2.31 | D 1.5 | L 1.93 | K 1.9 | Y 1.25 | F 1.92 | E 2.01 | R 4.04 | C 1.58 | H 1.54
G21: S 1.52 | M 1.89 | T 1.86 | H 2.52 | K 1.54 | A 2.17 | D 2 | C 1.91 | P 1.67 | Q 1.75 | L 2.88 | R 1.86 | N 2.41 | E 1.25
S12: A 1.65 | Q 1.6 | E 1.52 | T 1.18 | R 1.6 | V 2.35 | L 2.45 | G 1.72 | D 1.57 | F 3.2 | I 3.48 | P 1.89 | M 1.31 | Y 1.73 | H 1.62 | W 1.92 | N 1.92 | K 2.07
D16: W 3.03 | K 1.68 | M 2.83 | E 2.32 | S 2.26 | C 2.39 | P 1.79 | F 2.16 | G 2.06 | Y 2.52 | I 1.94 | L 2.44 | T 3.02 | Q 1.16 | N 2.33 | R 1.4 | H 1.44 | A 3.8
I10: W 1.96 | R 1.65 | L 2.41 | Q 1.83 | F 2.26 | T 1.81 | P 1.79 | A 1.85 | N 2.16 | G 1.64 | V 1.92 | E 2.22 | D 2.41 | M 2.11 | K 2.27 | C 1.64 | S 1.73 | Y 1.73 | H 1.93
D4: R 3.94 | W 1.96 | K 4.58 | T 4.09 | H 2.37 | G 1.39 | M 2.12 | A 1.83 | V 3.83 | L 1.84 | N 3.09 | P 1.13 | Q 1.45 | E 1.39 | S 2.29
A13: W 1.56 | V 3.68 | P 1.55 | H 1.45 | L 2.44 | T 2.02 | M 1.9 | Y 1.98 | F 2.5 | D 1.33 | C 2.08 | G 2.05 | I 3.29 | N 2.11 | R 3.3 | Q 1.95 | K 1.96 | E 1.72 | S 2.14
K5: S 1.07 | F 4.11 | H 1.55 | G 1.8 | C 2.29 | R 1.94 | T 2.98 | D 1.42 | I 3.22 | N 2.12 | P 1.74 | Y 1.61 | Q 1.74 | E 2.42 | W 2.34 | A 4.17
G14: N 2.15 | M 1.63 | R 2.29 | F 2.02 | A 1.51 | E 1.54 | C 2.19 | P 2.23 | H 2.29 | S 2.16 | V 2.6 | T 1.25 | I 2.97 | K 2.85 | Q 1.64 | Y 1.79 | L 1.64 | W 3.18 | D 2.12
Y9: T 2.1 | K 1.33 | H 1.75 | W 1.75 | I 1.45 | P 2.48 | N 1.81 | Q 2.14 | A 2.33 | V 1.93 | D 1.91 | G 1.96 | C 1.54 | F 3.1 | L 1.64 | S 2.01 | M 1.58 | R 1.41 | E 2.13
Q6: T 1.84 | D 1.4 | N 1.58 | F 2.05 | S 1.37 | M 2.63 | K 1.66 | W 4.19 | G 3.38 | P 1.5 | C 1 | V 2.08 | L 2.87 | Y 1.41 | A 1.51 | H 2.1 | R 2.3 | E 1.95
V3: W 2.13 | T 1.59 | I 2.64 | P 1.97 | R 1.52 | M 1.5 | N 2.35 | S 2.09 | H 1.74 | L 2.01 | Q 1.83 | G 2.1 | K 1.84 | Y 1.56
L15: C 1.47 | N 2.01 | A 1.8 | M 1.34 | V 1.54 | Q 1.47 | S 1.7 | K 2.02 | D 1.92 | Y 1.67 | I 1.31 | E 2.13 | P 1.99 | G 2.2 | R 1.55 | W 1.51 | H 1.67 | F 1.14 | T 2
W17: P 1.64 | N 2.17 | T 1.9 | V 2.24 | E 2.1 | D 1.94 | G 2.17 | M 1.38 | S 2.36 | A 1.97 | R 1.9 | K 1.72 | Y 1.89 | H 2.35 | I 1.63 | L 1.64 | Q 2.09 | C 1.73 | F 1.91
